The values below come from patent US20060051344A1.

One may read the IC50 as the concentration that inhibits the measured activity by half.

The target in test [1] is these two hybridoma culture supernatants. The test can be described thus: competitive EIA against biotinylated goby urotensin II.
In test [2] the target is monoclonal antibody AUII103-5-41a. The test can be described thus: competitive EIA; ratio of the antigen levels giving (B/B0)=0.5 (0.68 nM / 17.4 nM).
Test [3] shares this target. The experiment in a line: competitive EIA: unlabelled peptide displaces biotinylated goby urotensin II from captured antibody.
Test [4] deals with monoclonal antibody AUII5-6-10a. The test is described as above.

B1: human urotensin II (peptide)
peptide: ETPDCFWKYCV
Take B1: the results for the IC50 in test [1], in test [3] and in test [4] were 0.5 to 2 nM, 0.68 nM and 1.2 nM, respectively. The molecule also gave a human urotensin II level at (B/B0)=0.9 in test [1] of 0.2 nM. Further, the ratio of reactivity with human urotensin II to reactivity with porcine urotensin II-1 in test [2] came to 0.04 time.

B2: porcine urotensin II-1 (peptide)
peptide: GPTSECFWKYCV
In test [3], B2 showed an IC50 of 17.4 nM.
